In US20170275356A1 (Eli Lilly, published 2017):
Values joined by “and” are separate entries in the source; they are usually repeats but may differ in a detail not shown here. Identical values can stand only once.

Experiments:
[1] = biological target: T1, rabbit IL-23 (rabbit); test: SPR (BIAcore 2000), Antibody I captured on Protein A, IL-23 injected, 37 °C, n=2
T1 construct: Construct not described
Method: (§1) Antibody affinity (KD) to human, cynomolgus monkey or rabbit IL-23 is determined using a BIAcore Biosensor 2000 and BIAevaluation software with a 1:1 binding with mass transfer model. A capture protein (Protein A, Calbiochem) is coupled via free amine groups to carboxyl groups on flow cells 1 and 2 of a CM4 biosensor chip using a mixture of N-ethyl-N-(dimethylaminopropyl)-carbodiimide (EDC) and N-hydroxysuccinimide (NHS). Flow cells are monitored with a flow rate of 80 μL/minute using a buffer containing 0.01 M HEPES, pH 7.4, 150 mM NaCl, 0.005% surfactant P20. Antibody I is captured on flow cell 2 to yield a total of 40 to 60 response units (RU). Multiple cycles of increasing concentrations of IL-23 are then injected over flow cells 1 and 2 (0.62 nM to 30 nM for human and monkey IL-23 and 30 nM to 240 nM for rabbit IL-23) followed by a regeneration step using glycine-HCl (pH 1.5) between each cycle. Flow cell 1 is used as a control to monitor non-specific binding of IL-23 and the data reflects flow cell 2 minus flow cell 1. Each cycle includes an antibody capture step followed by injection of IL-23 at one concentration with a 30 minute dissociation period, then regeneration. Two cycles where buffer is injected in place of IL-23, serve as a control for baseline subtraction and correct for drift associated with the dissociation of Antibody I from the protein A surface. Affinity is measured at 37 ° C. The assay is performed 2 times with human, monkey or rabbit IL-23. Antibody I is tested 2 times each with mouse IL-23 at 333 nM, rat IL-23 at 200 nM, human IL-12 at 333 nM, human IL-27 at 500 nM or human IL-35 at 833 nM.
(§2) The on-rate (kₒₙ) and off-rate (koff) for each antigen are evaluated using a 1:1 binding with mass transfer model. The affinity (KD) is calculated from the binding kinetics according to the relationship: KD=koff/kₒₙ.

[2] = biological target: T2, cynomolgus monkey IL-23 (cynomolgus monkey); test: as above
T2 construct: Construct not described
Method: as §1, §2

[3] = biological target: T3, human IL-23 (human, UniProt P29460 23-328); test: as above
T3 construct: Disulfide-linked heterodimer of p19 and p40; also called Recombinant human IL-23; human interleukin-23
T3 sequence 1: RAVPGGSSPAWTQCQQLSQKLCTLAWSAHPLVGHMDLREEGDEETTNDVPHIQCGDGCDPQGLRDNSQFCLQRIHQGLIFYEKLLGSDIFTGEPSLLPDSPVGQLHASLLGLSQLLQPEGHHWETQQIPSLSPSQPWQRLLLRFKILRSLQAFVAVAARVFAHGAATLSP
T3 sequence 2: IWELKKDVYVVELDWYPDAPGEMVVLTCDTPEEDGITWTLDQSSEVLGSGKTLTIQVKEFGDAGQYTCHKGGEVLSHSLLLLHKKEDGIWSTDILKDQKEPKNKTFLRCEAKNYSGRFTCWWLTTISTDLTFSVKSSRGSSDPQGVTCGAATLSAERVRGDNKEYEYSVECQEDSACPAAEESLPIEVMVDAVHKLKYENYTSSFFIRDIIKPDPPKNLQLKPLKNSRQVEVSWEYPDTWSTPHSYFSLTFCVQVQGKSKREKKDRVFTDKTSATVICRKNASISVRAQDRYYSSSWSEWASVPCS
Method: as §1, §2

[4] = biological target: T3, human IL-23; test: cell-based or functional assay
[5] = biological target: T4, human IL-35 (human, UniProt P29459 23-219; Q14213 21-229, limits assumed); test: SPR (BIAcore), Antibody I captured on Protein A, 37 °C
T4 construct: subunit make-up is from general knowledge
T4 sequence (looked up) 1: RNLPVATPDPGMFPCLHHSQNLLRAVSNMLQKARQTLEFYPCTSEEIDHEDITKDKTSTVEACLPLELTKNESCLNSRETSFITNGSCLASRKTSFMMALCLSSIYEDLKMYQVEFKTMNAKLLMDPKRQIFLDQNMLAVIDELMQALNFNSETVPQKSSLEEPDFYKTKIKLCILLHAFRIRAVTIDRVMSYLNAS
T4 sequence (looked up) 2: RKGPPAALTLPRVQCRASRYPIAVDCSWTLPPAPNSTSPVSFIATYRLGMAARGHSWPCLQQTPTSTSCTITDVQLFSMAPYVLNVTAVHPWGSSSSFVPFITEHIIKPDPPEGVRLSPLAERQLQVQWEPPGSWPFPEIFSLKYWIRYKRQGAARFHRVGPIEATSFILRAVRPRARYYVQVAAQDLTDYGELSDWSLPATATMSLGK
Method: as §1
(§3) Antibody I produces a concentration-dependent binding response with human, cynomolgus monkey, and rabbit IL-23 using this method. Saturation of binding of IL-23 is attained at a concentration of 30 nM (human and monkey) and 240 nM (rabbit) using […] of Antibody I captured on the chip surface.

[6] = biological target: T5, human IL-12 (human, UniProt P29459 23-219; P29460 23-328); test: as above
T5 construct: construct not described
T5 sequence (looked up) 1: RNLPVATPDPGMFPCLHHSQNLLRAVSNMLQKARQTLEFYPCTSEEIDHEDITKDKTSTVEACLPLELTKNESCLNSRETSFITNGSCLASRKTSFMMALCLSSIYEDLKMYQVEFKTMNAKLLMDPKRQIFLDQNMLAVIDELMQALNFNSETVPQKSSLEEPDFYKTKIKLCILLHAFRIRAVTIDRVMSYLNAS
T5 sequence (looked up) 2: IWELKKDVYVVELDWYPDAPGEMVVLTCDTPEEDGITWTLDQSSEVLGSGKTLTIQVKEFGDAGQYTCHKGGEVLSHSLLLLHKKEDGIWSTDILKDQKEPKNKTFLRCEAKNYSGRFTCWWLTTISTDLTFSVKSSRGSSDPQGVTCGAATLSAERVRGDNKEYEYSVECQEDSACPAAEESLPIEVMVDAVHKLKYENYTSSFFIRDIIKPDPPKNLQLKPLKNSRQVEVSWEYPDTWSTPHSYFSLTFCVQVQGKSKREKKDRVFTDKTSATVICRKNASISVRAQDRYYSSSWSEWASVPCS
Method: as §1, §3

[7] = biological target: T6, human IL-27 (human, UniProt Q8NEV9 29-243; Q14213 21-229); test: as above
T6 construct: subunit make-up is from general knowledge
T6 sequence (looked up) 1: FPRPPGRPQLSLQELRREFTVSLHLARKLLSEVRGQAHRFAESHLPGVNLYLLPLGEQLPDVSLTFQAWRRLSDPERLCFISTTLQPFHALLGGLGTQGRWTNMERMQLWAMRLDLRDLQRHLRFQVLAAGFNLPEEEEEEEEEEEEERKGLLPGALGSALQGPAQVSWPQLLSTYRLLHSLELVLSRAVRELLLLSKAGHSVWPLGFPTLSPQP
T6 sequence (looked up) 2: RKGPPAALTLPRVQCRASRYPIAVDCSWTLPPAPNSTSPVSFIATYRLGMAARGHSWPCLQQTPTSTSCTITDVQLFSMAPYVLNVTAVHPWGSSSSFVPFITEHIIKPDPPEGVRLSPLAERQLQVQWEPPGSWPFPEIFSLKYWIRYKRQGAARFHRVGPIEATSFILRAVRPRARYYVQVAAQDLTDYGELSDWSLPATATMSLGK
Method: as §1, §3

[8] = biological target: T7, mouse IL-23 (mouse, UniProt Q9EQ14 22-196; P43432 23-335); test: as above
T7 construct: Construct not described
T7 sequence (looked up) 1: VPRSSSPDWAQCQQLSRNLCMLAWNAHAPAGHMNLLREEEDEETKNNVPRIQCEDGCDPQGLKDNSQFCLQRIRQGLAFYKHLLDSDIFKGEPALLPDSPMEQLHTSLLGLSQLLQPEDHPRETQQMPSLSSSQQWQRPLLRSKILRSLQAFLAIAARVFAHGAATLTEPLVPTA
T7 sequence (looked up) 2: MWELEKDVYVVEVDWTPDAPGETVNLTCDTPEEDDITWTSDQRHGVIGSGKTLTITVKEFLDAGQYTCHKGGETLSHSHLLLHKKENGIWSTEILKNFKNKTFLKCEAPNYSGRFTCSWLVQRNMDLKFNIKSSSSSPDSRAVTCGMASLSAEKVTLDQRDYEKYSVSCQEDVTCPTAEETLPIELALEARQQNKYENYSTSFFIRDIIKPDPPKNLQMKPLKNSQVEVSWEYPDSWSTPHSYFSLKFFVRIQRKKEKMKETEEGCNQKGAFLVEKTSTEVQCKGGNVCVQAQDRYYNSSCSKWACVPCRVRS
Method: as §1, §3

[9] = biological target: T2, cynomolgus monkey IL-23; test: cell-based or functional assay
[10] = biological target: T3, human IL-23; test: cell-based or functional assay; remark: listed apart in the source

B1: Antibody I (antibody, human IgG4 S228P, kappa, F234A L235A, V domains shown)
VH: QVQLVQSGAEVKKPGSSVKVSCKASGYKFTRYVMHWVRQAPGQGLEWMGYINPYNDGTNYNEKFKGRVTITADKSTSTAYMELSSLRSEDTAVYYCARNWDTGLWGQGTTVTVSS
VL: DIQMTQSPSSLSASVGDRVTITCKASDHILKFLTWYQQKPGKAPKLLIYGATSLETGVPSRFSGSGSGTDFTLTISSLQPEDFATYYCQMYWSTPFTFGGGTKVEIKR
notes: also called IL-23 Antibody
Work on B1 yielded a Kd [1] of 53 nM, a koff [1] of 0.00479 s⁻¹ and a kon [1] of 90000 M⁻¹ s⁻¹. The Kd [2] was 0.055 nM, the koff [2] was 7e-05 s⁻¹ and the kon [2] was 1.28e+06 M⁻¹ s⁻¹. It also gave a Kd [3] of 0.021 nM, a koff [3] of 5.2e-05 s⁻¹ and a kon [3] of 2.43e+06 M⁻¹ s⁻¹. For the same binder, the “fold induction of murine keratin-16 after human IL-23 injection” value [4] was 1.23 fold induction, the binding result [5] was “no binding (tested: 833 nM)” and the binding result [6] was “no binding (tested: 333 nM)”. The binding result [7] was “no binding (tested: 500 nM)”, the binding result [8] was “no binding (tested: 333 nM)” and the “IC50 (pM), in vitro IL-23 neutralization assay, IL-17 production by murine splenocytes” value [9] was 110 pM and 130 pM. For the same binder, the “IC50 (pM), in vitro IL-23 neutralization assay, IL-17 production by murine splenocytes” value [10] was 90 pM and 74 pM.
